Source: patent publication US9988424 (DUKE UNIVERSITY, dated 2018)

Tests used:
B.62357 gp140C = target: T1, B.62357 gp140C; assay: ELISA, OD405 at 10 ug/ml
T1 construct: also called B.62357 140C

D.9009SA V1/V2 tags = assay: ELISA, OD405 at 10 ug/ml
AE.A244 gp120 delta 11 = target: T2, AE.A244 gp120 delta 11 (HIV-1); assay: ELISA, OD405 at 10 ug/ml
T2 construct: also called E.A244gp120Δ11; AE.A244 Δ11 gp120

A.Q23 V1V2 tags = A.Q23 V1V2 tags (HIV-1); assay: ELISA, OD405 at 10 ug/ml
C.1086 gp140 = target: T3, C.1086 gp140; assay: ELISA, OD405 at 10 ug/ml
T3 construct: also called C.1086gp140C

A.9004SS V1/V2 tags = target: T4, A.9004SS V1/V2 tags; assay: ELISA, OD405 at 10 ug/ml
T4 V1V2 tags construct: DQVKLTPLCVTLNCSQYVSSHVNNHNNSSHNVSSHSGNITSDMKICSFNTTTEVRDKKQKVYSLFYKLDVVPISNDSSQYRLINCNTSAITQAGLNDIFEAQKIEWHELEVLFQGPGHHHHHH

B.9021 gp140C = B.9021 gp140C (HIV-1); assay: ELISA, OD405 at 10 ug/ml
gp70 C.1086 V1/V2 = target: T5, gp70 C.1086 V1/V2 (HIV-1 V1V2 on murine leukemia virus gp70); assay: ELISA, OD405 at 10 ug/ml
T5 construct: also called C.gp70 1086C V1V2; C.1086gp70V1V2
T5 chain: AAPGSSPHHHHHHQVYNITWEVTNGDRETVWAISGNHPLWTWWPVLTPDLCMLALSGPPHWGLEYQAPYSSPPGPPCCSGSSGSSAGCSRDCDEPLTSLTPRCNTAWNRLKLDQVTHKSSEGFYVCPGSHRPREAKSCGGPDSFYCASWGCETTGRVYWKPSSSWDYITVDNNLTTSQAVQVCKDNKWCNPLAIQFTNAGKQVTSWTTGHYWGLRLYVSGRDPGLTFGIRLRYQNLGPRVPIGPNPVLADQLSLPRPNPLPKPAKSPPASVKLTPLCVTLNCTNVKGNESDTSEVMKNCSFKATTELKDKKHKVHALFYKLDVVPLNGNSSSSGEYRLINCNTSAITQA

C.1086 V1V2 Tags = C.1086 V1V2 Tags (HIV-1); assay: ELISA, OD405 at 10 ug/ml
B.Case A2 V1/V2 tags = assay: ELISA, OD405 at 10 ug/ml
B.HXB/BAL gp140CFI = target: T6, B.HXB/BAL gp140CFI (HIV-1, UniProt P04578 33-680); assay: ELISA, OD405 at 10 ug/ml
T6 construct: also called B.HxB/Ba gp140 CFI

B.63521_V1/V2 tags = assay: ELISA, OD405 at 10 ug/ml
AE.A244 V1V2 Tags = AE.A244 V1V2 Tags (HIV-1); assay: ELISA, OD405 at 10 ug/ml
AE.97CNG2XF gp140CF = target: T7, AE.97CNG2XF gp140CF (HIV-1); assay: ELISA, OD405 at 10 ug/ml
T7 construct: also called E.97CNGX2F gp140CF

SIV CPZ US-1 gp140CF = target: T8, SIV CPZ US-1 gp140CF (SIVcpz); assay: ELISA, OD405 at 10 ug/ml
T8 construct: also called US-1 SIVCPZ gp140CF
T8 chain: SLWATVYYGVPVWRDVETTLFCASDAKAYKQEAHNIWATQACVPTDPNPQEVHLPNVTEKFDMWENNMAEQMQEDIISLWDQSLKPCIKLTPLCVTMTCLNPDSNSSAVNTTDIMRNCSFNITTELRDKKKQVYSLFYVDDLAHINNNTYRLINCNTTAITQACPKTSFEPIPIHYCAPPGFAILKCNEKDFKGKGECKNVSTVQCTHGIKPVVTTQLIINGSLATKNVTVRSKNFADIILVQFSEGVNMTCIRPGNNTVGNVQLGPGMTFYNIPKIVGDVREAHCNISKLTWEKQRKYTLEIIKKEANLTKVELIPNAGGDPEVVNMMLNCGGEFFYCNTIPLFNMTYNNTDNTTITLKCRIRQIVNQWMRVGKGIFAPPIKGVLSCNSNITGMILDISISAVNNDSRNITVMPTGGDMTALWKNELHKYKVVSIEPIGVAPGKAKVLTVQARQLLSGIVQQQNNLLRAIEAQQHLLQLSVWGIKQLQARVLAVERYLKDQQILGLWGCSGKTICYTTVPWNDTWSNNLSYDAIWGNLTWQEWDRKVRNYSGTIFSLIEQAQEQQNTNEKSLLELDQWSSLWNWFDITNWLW

G.con gp140CF = assay: ELISA, OD405 at 10 ug/ml
D.9009SA V1V2 Tags = target: T9, D.9009SA V1V2 Tags; assay: ELISA, OD405
T9 Env construct: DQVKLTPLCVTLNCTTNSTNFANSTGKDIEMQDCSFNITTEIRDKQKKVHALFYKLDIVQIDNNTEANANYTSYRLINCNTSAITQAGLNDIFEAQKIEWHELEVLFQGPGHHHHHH

B. 681-7 gp140C = assay: ELISA, OD405

Measured: binding result

B1: PG16 reverted unmutated ancestor antibody (antibody, V domains shown)
VH: QVQLVESGGGVVQPGRSLRLSCAASGFTFSSYGMHWVRQAPGKGLEWVAVISYDGSNKYYADSVKGRFTISRDNSKNTLYLQMNSLRAEDTAVYYCAREAGGPIWHDDVKYYDFNDGYYYYYYMDVWGKGTTVTVSS
VL: QSALTQPASVSGSPGQSITISCTGTSSDVGSYNLVSWYQQHPGKAPKLMIYEVSKRPSGVSNRFSGSKSGNTASLTISGLQAEDEADYYCCSLTDRSHRIFGGGTKLTVL
notes: also called PG16 RUA; PG16_RUA
no binding (tested: 10 ug/ml): all assays above
